The results in this text go back to patent US20160031959A1.

The assay addresses recombinant BAX protein (UniProt Q07812). Description: fluorescence polarization, FITC-labeled peptide incubated with recombinant BAX at various concentrations, 60 min, room temperature. (Fluorescence polarisation rises when a labelled molecule tumbles more slowly, as on binding a larger partner.)

pEC50: −log10 of the molar value.

recombinant BAX protein, sequence (Q07812 whole entry, form in doubt): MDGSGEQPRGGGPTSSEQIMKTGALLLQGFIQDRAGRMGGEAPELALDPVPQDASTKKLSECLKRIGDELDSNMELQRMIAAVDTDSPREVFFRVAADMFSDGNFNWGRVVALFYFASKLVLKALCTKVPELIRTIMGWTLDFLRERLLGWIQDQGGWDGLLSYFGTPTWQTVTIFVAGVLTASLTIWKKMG

Broadly, the pEC50 is −log10 of the EC50, conventionally taken in molar units. For BCL-2 BH4 SAHBA (peptide), the pEC50 was 8.34.
